Our source for the percent of total β1-integrin extracted values is article PMC7064779.

In this test the target is LecB-biotin (Pseudomonas aeruginosa lectin LecB, biotinylated) (Pseudomonas aeruginosa) (UniProt Q9HYN5). The experiment in a line: pull-down; LecB-biotin applied basolaterally to polarized filter-grown MDCK cells; cells lysed; LecB-biotin-receptor complexes precipitated with streptavidin beads; β1-integrin probed by Western blot in precipitate and supernatant. (Immunoblotting shows a protein as a band on a membrane.)

Substance “β1-integrin (glycosylated, endogenous in MDCK cells) (receptor)” had a percent of total β1-integrin extracted of 75%.
